{"source": "paper PMC5579238", "about": "“MAPK1 of Leishmania donovani interacts and phosphorylates HSP70 and HSP90 subunits of foldosome complex” (Scientific Reports, 2017)", "key": {"[1]": {"biological_target": "T1, LdMAPK1 (Leishmania donovani, UniProt E2CWC1)", "T1 construct": "GST fused rLdMAPK1 (pGEX-KG-LdMAPK1), expressed in E. coli", "T1 sequence (E2CWC1 1-358)": "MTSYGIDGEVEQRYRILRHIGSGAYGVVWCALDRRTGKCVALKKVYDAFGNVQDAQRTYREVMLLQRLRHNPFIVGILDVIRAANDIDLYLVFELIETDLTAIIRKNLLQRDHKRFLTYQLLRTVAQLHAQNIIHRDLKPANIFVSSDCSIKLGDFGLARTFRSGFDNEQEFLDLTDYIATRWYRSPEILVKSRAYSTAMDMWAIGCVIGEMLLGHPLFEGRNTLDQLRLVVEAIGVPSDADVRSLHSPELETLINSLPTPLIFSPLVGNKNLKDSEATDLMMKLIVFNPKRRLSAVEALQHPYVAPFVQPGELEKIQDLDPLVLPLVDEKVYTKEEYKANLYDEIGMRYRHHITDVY", "assay": "Kinase-Glo Plus ATP consumption assay with recombinant HSP90 or HSP70 as substrate; Dixon plot", "format": "biochemical"}, "[2]": {"biological_target": "Leishmania donovani MAPK1 (L. donovani (endogenous in promastigotes))"}}, "note": "Where a name gives a salt, the structure may show the parent alone.", "data": [{"compound": "CCOc1ccc(C=C2SC(=O)N(CCN)C2=O)cc1", "note": "[AMTZD, 3-(2-aminoethyl)-5-([4-ethoxyphenyl]methylene)-2,4-thiazolidinedione HCl]", "values": [{"measurement": "Ki", "setting": "[1]", "result": "2.72 ± 0.14", "unit": "µM"}]}, {"compound": "HSP70 (from UniProt P17804 1-653) (natural protein)", "values": [{"measurement": "Km of the in vitro kinase assay (ATP consumption, Kinase-Glo) of recombinant GST-LdMAPK1 with recombinant His-tagged HSP70 as substrate", "setting": "[2]", "result": 0.0176, "unit": "µM"}]}, {"compound": "HSP90 (natural protein)", "values": [{"measurement": "Km of the in vitro kinase assay (ATP consumption, Kinase-Glo) of recombinant GST-LdMAPK1 with recombinant His-tagged HSP90 as substrate", "setting": "[2]", "result": 0.0167, "unit": "µM"}]}]}
